# Article PMC9352680, “A comprehensive thermodynamic model for RNA binding by the Saccharomyces cerevisiae Pumilio protein PUF4”
# T1: PUF4 RNA-binding domain (Saccharomyces cerevisiae, UniProt P25339 537-888)
# T1 sequence: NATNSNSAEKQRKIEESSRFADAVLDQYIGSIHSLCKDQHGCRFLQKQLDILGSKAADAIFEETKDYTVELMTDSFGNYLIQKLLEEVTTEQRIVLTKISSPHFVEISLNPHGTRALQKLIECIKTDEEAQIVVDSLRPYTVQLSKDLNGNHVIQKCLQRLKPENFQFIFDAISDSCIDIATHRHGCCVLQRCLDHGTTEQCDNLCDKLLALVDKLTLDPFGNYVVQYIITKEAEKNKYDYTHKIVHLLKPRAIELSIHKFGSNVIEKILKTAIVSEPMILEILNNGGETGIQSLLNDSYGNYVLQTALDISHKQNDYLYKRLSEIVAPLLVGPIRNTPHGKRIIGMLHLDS
# Target: T1, PUF4 RNA-binding domain
# Experiment: Mg; RNA-MaP; 20 mM Na-HEPES pH 7.4, 30 mM KOAc, 0.75 mM MgCl2, 0.1% Tween-20, 5% glycerol, 0.1 mg/mL BSA, 2 mM DTT; 25 C; 0.0125-409.6 nM protein
# Settings: tags: N-His6-TEV cleaved; C-SNAP kept, Cy3B-labelled; label: tethered on chip by stalled RNA polymerase
row,Binder,Kd [nM]
1,UCUCUUUGUACGAAUGUCUCUU (ssRNA) [Ic_S1_P5E.1_K5.1_C5.1_H5.1_A5.1_[T5C]_[T6G]_F5.1_[T8A]_[A10G]_T5.1],819
2,UCUCUUUGUAUUCCAAUCUCUU (ssRNA) [Ic_S1_P5E.1_K5.1_C5.1_H5.1_A5.1_[A7C]_F5.1_[T8C]_[T9A]_T5.1],526
3,UCUCUUUGUAGCGUAAUCUCUU (ssRNA) [Ic_S1_P5E.1_K5.1_C5.1_H5.1_A5.1_[T5G]_[T6C]_[A7G]_F5.1_[T9A]_T5.1],300
4,UCUCUUUGUAUCAUGCUCUCUU (ssRNA) [Ic_S1_P5E.1_K5.1_C5.1_H5.1_A5.1_[T6C]_F5.1_[T9G]_[A10C]_T5.1],11.3
5,UCUCUUUGUAAGUUAGUCUCUU (ssRNA) [Ic_S1_P5E.1_K5.1_C5.1_H5.1_A5.1_[T5A]_[T6G]_[A7T]_F5.1_[T9A]_[A10G]_T5.1],17.2
6,UCUCUUUUUUUAUAUCUCUU (ssRNA) [Ib_S1_P3E.1_K3.1_C3.1_H3.1_[G2T]_[A4T]_A3.1_F3.1_T3.1],> 2300
7,UCUCUUUCUUUAUAUCUCUU (ssRNA) [Ib_S1_P3E.1_K3.1_C3.1_H3.1_[G2C]_[A4T]_A3.1_F3.1_T3.1],> 2300
8,UCUCUUUGUAUUCGUUUCUCUU (ssRNA) [Ic_S1_P5E.1_K5.1_C5.1_H5.1_A5.1_[A7C]_F5.1_[T8G]_[A10T]_T5.1],378
9,UCUCUUUGUAACACCUUCUCUU (ssRNA) [Ic_S1_P5E.1_K5.1_C5.1_H5.1_A5.1_[T5A]_[T6C]_F5.1_[T8C]_[T9C]_[A10T]_T5.1],621
10,UCUCUUUGUACCAGCGUCUCUU (ssRNA) [Ic_S1_P5E.1_K5.1_C5.1_H5.1_A5.1_[T5C]_[T6C]_F5.1_[T8G]_[T9C]_[A10G]_T5.1],1180
11,UCUCUUUGUAGCAUACUCUCUU (ssRNA) [Ic_S1_P5E.1_K5.1_C5.1_H5.1_A5.1_[T5G]_[T6C]_F5.1_[T9A]_[A10C]_T5.1],8.64
12,UCUCUUUGUAAUAAUGUCUCUU (ssRNA) [Ic_S1_P5E.1_K5.1_C5.1_H5.1_A5.1_[T5A]_F5.1_[T8A]_[A10G]_T5.1],521
13,UCUCUUUGUAUCUUAUUCUCUU (ssRNA) [Ic_S1_P5E.1_K5.1_C5.1_H5.1_A5.1_[T6C]_[A7T]_F5.1_[T9A]_[A10T]_T5.1],3.28
14,UCUCUUUGUACAAUCUUCUCUU (ssRNA) [Ic_S1_P5E.1_K5.1_C5.1_H5.1_A5.1_[T5C]_[T6A]_F5.1_[T9C]_[A10T]_T5.1],25.9
15,UCUCUUUGCGUAUAUCUCUU (ssRNA) [Ib_S1_P3E.1_K3.1_C3.1_H3.1_[T3C]_[A4G]_A3.1_F3.1_T3.1],> 2300
16,UCUCUUUGUAGUACCUUCUCUU (ssRNA) [Ic_S1_P5E.1_K5.1_C5.1_H5.1_A5.1_[T5G]_F5.1_[T8C]_[T9C]_[A10T]_T5.1],> 2300

row,Binder,Kd [nM]
1,UCUCUUUGUACUGUGUUCUCUU (ssRNA) [Ic_S1_P5E.1_K5.1_C5.1_H5.1_A5.1_[T5C]_[A7G]_F5.1_[T9G]_[A10T]_T5.1],27.2
2,UCUCUUUGUAGCUGCUUCUCUU (ssRNA) [Ic_S1_P5E.1_K5.1_C5.1_H5.1_A5.1_[T5G]_[T6C]_[A7T]_F5.1_[T8G]_[T9C]_[A10T]_T5.1],2150
3,UCUCUUUGUACAUAGUUCUCUU (ssRNA) [Ic_S1_P5E.1_K5.1_C5.1_H5.1_A5.1_[T5C]_[T6A]_[A7T]_F5.1_[T8A]_[T9G]_[A10T]_T5.1],4.18
4,UCUCUUUGUAUCCCUAUCUCUU (ssRNA) [Ic_S1_P5E.1_K5.1_C5.1_H5.1_A5.1_[T6C]_[A7C]_F5.1_[T8C]_T5.1],13.3
5,UCUCUUUGUAGCUGGUUCUCUU (ssRNA) [Ic_S1_P5E.1_K5.1_C5.1_H5.1_A5.1_[T5G]_[T6C]_[A7T]_F5.1_[T8G]_[T9G]_[A10T]_T5.1],> 2300
6,UCUCUUUGUACUUACGUCUCUU (ssRNA) [Ic_S1_P5E.1_K5.1_C5.1_H5.1_A5.1_[T5C]_[A7T]_F5.1_[T8A]_[T9C]_[A10G]_T5.1],504
7,UCUCUUUUUGUAUAUCUCUU (ssRNA) [Ib_S1_P3E.1_K3.1_C3.1_H3.1_[G2T]_[A4G]_A3.1_F3.1_T3.1],25.1
8,UCUCUUUGUACUGCACUCUCUU (ssRNA) [Ic_S1_P5E.1_K5.1_C5.1_H5.1_A5.1_[T5C]_[A7G]_F5.1_[T8C]_[T9A]_[A10C]_T5.1],724
9,UCUCUUUGUACAAAACUCUCUU (ssRNA) [Ic_S1_P5E.1_K5.1_C5.1_H5.1_A5.1_[T5C]_[T6A]_F5.1_[T8A]_[T9A]_[A10C]_T5.1],45.2
10,UCUCUUUGUACAUCCAUCUCUU (ssRNA) [Ic_S1_P5E.1_K5.1_C5.1_H5.1_A5.1_[T5C]_[T6A]_[A7T]_F5.1_[T8C]_[T9C]_T5.1],29.4
11,UCUCUUUGUACUCACGUCUCUU (ssRNA) [Ic_S1_P5E.1_K5.1_C5.1_H5.1_A5.1_[T5C]_[A7C]_F5.1_[T8A]_[T9C]_[A10G]_T5.1],1100
12,UCUCUUUGUAUGUAAGUCUCUU (ssRNA) [Ic_S1_P5E.1_K5.1_C5.1_H5.1_A5.1_[T6G]_[A7T]_F5.1_[T8A]_[T9A]_[A10G]_T5.1],446
13,UCUCUUUGUACCGUCCUCUCUU (ssRNA) [Ic_S1_P5E.1_K5.1_C5.1_H5.1_A5.1_[T5C]_[T6C]_[A7G]_F5.1_[T9C]_[A10C]_T5.1],1540
14,UCUCUUUGUAGCUUACUCUCUU (ssRNA) [Ic_S1_P5E.1_K5.1_C5.1_H5.1_A5.1_[T5G]_[T6C]_[A7T]_F5.1_[T9A]_[A10C]_T5.1],19.2
15,UCUCUUUGUAGCUGCCUCUCUU (ssRNA) [Ic_S1_P5E.1_K5.1_C5.1_H5.1_A5.1_[T5G]_[T6C]_[A7T]_F5.1_[T8G]_[T9C]_[A10C]_T5.1],> 2300
16,UCUCUUUGUACGUGUUUCUCUU (ssRNA) [Ic_S1_P5E.1_K5.1_C5.1_H5.1_A5.1_[T5C]_[T6G]_[A7T]_F5.1_[T8G]_[A10T]_T5.1],98.8
